Data set [1] relates to HeLa Kyoto. The experiment in a line: solubility change mitosis vs G1/S (difference of NP-40 vs SDS log2 ratios) (log2 ratio difference); higher = more soluble in mitosis.
In data set [2] the test system is HeLa Kyoto. The experiment in a line: solubility in G1/S (NP-40 vs SDS abundance) (log2 ratio); higher = more soluble. The following applies: cell cycle stage: G1/S.
Data set [3] relates to HeLa Kyoto. The experiment in a line: thermal stability score vs G1/S (z-score of summed log2 fold changes over temperatures); higher = more thermally stable than in G1/S.
The mark [4] stands for this setting: cell cycle stage: early G1 (4.5 h after nocodazole release).

This note sets out measurements from the supplement of paper PMC5998384.
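Throughout, for solubility change mitosis vs G1/S (difference of NP-40 vs SDS log2 ratios): synchronized HeLa Kyoto cells (double thymidine block for G1/S, nocodazole release for mitosis), protein amounts in NP-40 versus SDS lysates quantified by mass spectrometry, three biological replicates.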
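Throughout, for solubility in G1/S (NP-40 vs SDS abundance): HeLa Kyoto cells arrested at G1/S by double thymidine block, proteins quantified by TMT10plex mass spectrometry in mild NP-40 versus SDS extracts, three biological replicates.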
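Throughout, for thermal stability score vs G1/S (z-score of summed log2 fold changes over temperatures): synchronized HeLa Kyoto cells, proteins quantified by TMT10plex mass spectrometry, three biological replicates, mitosis taken 0.5 h after nocodazole release, G1/S directly after double thymidine block.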

For the sequence “MAADVVGDVYVLVEHPFEYTGKDGRRVAIRPNERYRLLRRSTEHWWHVRREPGGRPFYLPAQYVRELPALGNPAAAAPPGPHPSPAAPEPLAYDYRFVSAAATAGPDGAPEESGGRASSLCGPAQRGAATQRSSLAPGLPACLYLRPAAPVRPAQSLNDLACAAVSPPAGLLGSSGSFKACSVAGSWVCPRPLARSDSENVYEVIQDLHVPPPEESAEQVDDPPEPVYANIERQPRATSPGAAAAPLPSPVWETHTDAGTGRPYYYNPDTGVTTWESPFEAAEGAASPATSPASVDSHVSLETEWGQYWDEESRRVFFYNPLTGETAWEDEAENEPEEELEMQPGLSPGSPGDPRPPTPETDYPESLTSYPEEDYSPVGSFGEPGPTSPLTTPPGWSCHVSQDKQMLYTNHFTQEQWVRLEDPHGKPYFYNPEDSSVRWELPQVPVPAPRSIHKSSQDGDTPAQASPPEEKVPAELDEVGSWEEVSPATAAVRTKTLDKAGVLHRTKTADKGKRLRKKHWSASWTVLEGGVLTFFKDSKTSAAGGLRQPSKFSTPEYTVELRGATLSWAPKDKSSRKNVLELRSRDGSEYLIQHDSEAIISTWHKAIAQGIQELSAELPPEESESSRVDFGSSERLGSWQEKEEDARPNAAAPALGPVGLESDLSKVRHKLRKFLQRRPTLQSLREKGYIKDQVFGCALAALCERERSRVPRFVQQCIRAVEARGLDIDGLYRISGNLATIQKLRYKVDHDERLDLDDGRWEDVHVITGALKLFFRELPEPLFPFSHFRQFIAAIKLQDQARRSRCVRDLVRSLPAPNHDTLRMLFQHLCRVIEHGEQNRMSVQSVAIVFGPTLLRPEVEETSMPMTMVFQNQVVELILQQCADIFPPH [ARHGAP27]”, the “solubility change mitosis (log2)” value in data set [1] is -0.164. Further, the “solubility in G1/S (log2)” value in data set [2] is 0.0968. For the same sequence, the values for the thermal stability score in data set [3] (setting [4]) and in data set [3] (cell cycle stage: mitosis) were 2.18 and 0.927, respectively.

Turning to “MAAPAPGAGAASGGAGCSGGGAGAGAGSGSGAAGAGGRLPSRVLELVFSYLELSELRSCALVCKHWYRCLHGDENSEVWRSLCARSLAEEALRTDILCNLPSYKAKIRAFQHAFSTNDCSRNVYIKKNGFTLHRNPIAQSTDGARTKIGFSEGRHAWEVWWEGPLGTVAVIGIATKRAPMQCQGYVALLGSDDQSWGWNLVDNNLLHNGEVNGSFPQCNNAPKYQIGERIRVILDMEDKTLAFERGYEFLGVAFRGLPKVCLYPAVSAVYGNTEVTLVYLGKPLDG [FBXO45]”, the “solubility change mitosis (log2)” value in data set [1] is -0.17. In addition, in data set [2], the “solubility in G1/S (log2)” value was 0.344. For the same sequence, the figures for the thermal stability score in data set [3] (setting [4]) and in data set [3] (cell cycle stage: mitosis) were -0.0815 and -0.292, respectively.

In the case of “MAAVVAATALKGRGARNARVLRGILAGATANKASHNRTRALQSHSSPEGKEEPEPLSPELEYIPRKRGKNPMKAVGLAWYSLYTRTWLGYLFYRQQLRRARNRYPKGHSKTQPRLFNGVKVLPIPVLSDNYSYLIIDTQAQLAVAVDPSDPRAVQASIEKEGVTLVAILCTHKHWDHSGGNRDLSRRHRDCRVYGSPQDGIPYLTHPLCHQDVVSVGRLQIRALATPGHTQGHLVYLLDGEPYKGPSCLFSGDLLFLSGCGRTFEGNAETMLSSLDTVLGLGDDTLLWPGHEYAEENLGFAGVVEPENLARERKMQWVQRQRLERKGTCPSTLGEERSYNPFLRTHCLALQEALGPGPGPTGDDDYSRAQLLEELRRLKDMHKSK [PNKD]”, the “solubility change mitosis (log2)” value in data set [1] was -0.135. Besides, the “solubility in G1/S (log2)” value in data set [2] was -0.0413. The thermal stability score in data set [3] (setting [4]) is 0.265; in data set [3] (cell cycle stage: mitosis) it was -0.394.

With “MAELDQLPDESSSAKALVSLKEGSLSNTWNEKYSSLQKTPVWKGRNTSSAVEMPFRNSKRSRLFSDEDDRQINTRSPKRNQRVAMVPQKFTATMSTPDKKASQKIGFRLRNLLKLPKAHKWCIYEWFYSNIDKPLFEGDNDFCVCLKESFPNLKTRKLTRVEWGKIRRLMGKPRRCSSAFFEEERSALKQKRQKIRLLQQRKVADVSQFKDLPDEIPLPLVIGTKVTARLRGVHDGLFTGQIDAVDTLNATYRVTFDRTGLGTHTIPDYEVLSNEPHETMPIAAFGQKQRPSRFFMTPPRLHYTPPLQSPIIDNDPLLGQSPWRSKISGSDTETLGGFPVEFLIQVTRLSKILMIKKEHIKKLREMNTEAEKLKSYSMPISIEFQRRYATIVLELEQLNKDLNKVLHKVQQYCYELAPDQGLQPADQPTDMRRRCEEEAQEIVRHANSSTGQPCVENENLTDLISRLTAILLQIKCLAEGGDLNSFEFKSLTDSLNDIKSTIDASNISCFQNNVEIHVAHIQSGLSQMGNLHAFAANNTNRD [LIN9]”, the “solubility change mitosis (log2)” value in data set [1] was determined as 0.143. Moreover, in data set [2], the “solubility in G1/S (log2)” value turned out to be 0.183. For the same sequence, the thermal stability score came out at 2.27 in data set [3] (setting [4]) and 3.4 in data set [3] (cell cycle stage: mitosis).

On to “MAGENFATPFHGHVGRGAFSDVYEPAEDTFLLLDALEAAAAELAGVEICLEVGSGSGVVSAFLASMIGPQALYMCTDINPEAAACTLETARCNKVHIQPVITDLVKGLLPRLTEKVDLLVFNPPYVVTPPQEVGSHGIEAAWAGGRNGREVMDRFFPLVPDLLSPRGLFYLVTIKENNPEEILKIMKTKGLQGTTALSRQAGQETLSVLKFTKS [N6AMT1]”, for which, in data set [1], the “solubility change mitosis (log2)” value worked out at 0.0523. In addition, the “solubility in G1/S (log2)” value in data set [2] worked out at 0.483. The thermal stability score in data set [3] (setting [4]) was determined as 0.341; in data set [3] (cell cycle stage: mitosis) it was 0.273.

As for “MAKREDSPGPEVQPMDKQFLVCSICLDRYQCPKVLPCLHTFCERCLQNYIPAQSLTLSCPVCRQTSILPEQGVSALQNNFFISSLMEAMQQAPDGAHDPEDPHPLSVVAGRPLSCPNHEGKTMEFYCEACETAMCGECRAGEHREHGTVLLRDVVEQHKAALQRQLEAVRGRLPQLSAAIALVGGISQQLQERKAEALAQISAAFEDLEQALQQRKQALVSDLETICGAKQKVLQSQLDTLRQGQEHIGSSCSFAEQALRLGSAPEVLLVRKHMRERLAALAAQAFPERPHENAQLELVLEVDGLRRSVLNLGALLTTSATAHETVATGEGLRQALVGQPASLTVTTKDKDGRLVRTGSAELRAEITGPDGTRLPVPVVDHKNGTYELVYTARTEGELLLSVLLYGQPVRGSPFRVRALRPGDLPPSPDDVKRRVKSPGGPGSHVRQKAVRRPSSMYSTGGKRKDNPIEDELVFRVGSRGREKGEFTNLQGVSAASSGRIVVADSNNQCIQVFSNEGQFKFRFGVRGRSPGQLQRPTGVAVDTNGDIIVADYDNRWVSIFSPEGKFKTKIGAGRLMGPKGVAVDRNGHIIVVDNKSCCVFTFQPNGKLVGRFGGRGATDRHFAGPHFVAVNNKNEIVVTDFHNHSVKVYSADGEFLFKFGSHGEGNGQFNAPTGVAVDSNGNIIVADWGNSRIQVFDSSGSFLSYINTSAEPLYGPQGLALTSDGHVVVADAGNHCFKAYRYLQ [TRIM3]”, the “solubility change mitosis (log2)” value in data set [1] was -0.138. Further, the “solubility in G1/S (log2)” value in data set [2] was -0.0387. Besides, the results for the thermal stability score in data set [3] (setting [4]) and in data set [3] (cell cycle stage: mitosis) were 0.13 and 0.0555, respectively.

As to “MAPARLFALLLFFVGGVAESIRETEVIDPQDLLEGRYFSGALPDDEDVVGPGQESDDFELSGSGDLDDLEDSMIGPEVVHPLVPLDNHIPERAGSGSQVPTEPKKLEENEVIPKRISPVEESEDVSNKVSMSSTVQGSNIFERTEVLAALIVGGIVGILFAVFLILLLMYRMKKKDEGSYDLGKKPIYKKAPTNEFYA [SDC4]”, the “solubility change mitosis (log2)” value in data set [1] came to 0.235. The “solubility in G1/S (log2)” value in data set [2] is -0.523. For the same sequence, the thermal stability score stood at 2.66 in data set [3] (setting [4]) and 4.92 in data set [3] (cell cycle stage: mitosis).

Take “MAQVSINNDYSEWDLSTDAGERARLLQSPCVDTAPKSEWEASPGGLDRGTTSTLGAIFIVVNACLGAGLLNFPAAFSTAGGVAAGIALQMGMLVFIISGLVILAYCSQASNERTYQEVVWAVCGKLTGVLCEVAIAVYTFGTCIAFLIIIGDQQDKIIAVMAKEPEGASGPWYTDRKFTISLTAFLFILPLSIPREIGFQKYASFLSVVGTWYVTAIVIIKYIWPDKEMTPGNILTRPASWMAVFNAMPTICFGFQCHVSSVPVFNSMQQPEVKTWGGVVTAAMVIALAVYMGTGICGFLTFGAAVDPDVLLSYPSEDMAVAVARAFIILSVLTSYPILHFCGRAVVEGLWLRYQGVPVEEDVGRERRRRVLQTLVWFLLTLLLALFIPDIGKVISVIGGLAACFIFVFPGLCLIQAKLSEMEEVKPASWWVLVSYGVLLVTLGAFIFGQTTANAIFVDLLA [SLC38A7]”: the “solubility change mitosis (log2)” value in data set [1] was -0.113. In addition, the “solubility in G1/S (log2)” value in data set [2] is -0.213. Also, the thermal stability score was -4.08 in data set [3] (setting [4]) and -4.26 in data set [3] (cell cycle stage: mitosis).

As for “MATLVELPDSVLLEIFSYLPVRDRIRISRVCHRWKRLVDDRWLWRHVDLTLYTMRPKVMWHLLRRYMASRLHSLRMGGYLFSGSQAPQLSPALLRALGQKCPNLKRLCLHVADLSMVPITSLPSTLRTLELHSCEISMAWLHKQQDPTVLPLLECIVLDRVPAFRDEHLQGLTRFRALRSLVLGGTYRVTETGLDAGLQELSYLQRLEVLGCTLSADSTLLAISRHLRDVRKIRLTVRGLSAPGLAVLEGMPALESLCLQGPLVTPEMPSPTEILSSCLTMPKLRVLELQGLGWEGQEAEKILCKGLPHCMVIVRACPKESMDWWM [FBXL12]”, the “solubility change mitosis (log2)” value in data set [1] is -0.183. Besides, the “solubility in G1/S (log2)” value in data set [2] is -0.129. Also, the thermal stability score in data set [3] (setting [4]) was -0.861; in data set [3] (cell cycle stage: mitosis) it was -0.543.
